Data as given in US7452965.
One block for each binder: values may come before it. Bridge positions count the residues as written; N and C are the ends. Ends that are not written are not given here.

Tests used:
[1] = molecular target: HT29 protein (unidentified protease-sensitive cell surface protein on HT29 colon carcinoma cells that the RPM peptide binds); experiment: competition with RPM phage on HT29 cells, real time PCR
[2] = molecular target: HT29 protein (unidentified protease-sensitive cell surface protein on HT29 colon carcinoma cells that the RPM peptide binds); experiment: competition with RPM displaying phage on HT29 cells, real time PCR
[3] = molecular target: HT29 protein (unidentified protease-sensitive cell surface protein on HT29 colon carcinoma cells that the RPM peptide binds); experiment: competition of non-specific peptide with RPM phage on HT29 cells, real time PCR; 100% means no competition
[4] = molecular target: HT29 protein (unidentified protease-sensitive cell surface protein on HT29 colon carcinoma cells that the RPM peptide binds); experiment: competition of synthetic peptide with RPM phage on HT29 cells, real time PCR; percent of phage bound without competitor

B1: RPM middle peptide … (SEQ ID NO: 137) (peptide)
peptide: CPIRPMEDC
fold less potent than RPM in competition [1]: > 100 fold

B2: APM peptide (RPM peptide with the arginine mutated to alanine) (peptide)
peptide: CPIEDAPMC
EC50 [2]: 690 µM | fold shift of the EC50 of competition against the RPM peptide [2]: 100 fold

B5: RPA peptide (RPM peptide with the methionine mutated to alanine) (peptide)
peptide: CPIEDRPAC
EC50 [2]: 545 µM | fold shift of the EC50 of competition against the RPM peptide [2]: 100 fold

Other lines, results leading:

percent of RPM phage binding remaining [3]: 100%
B3: non-specific peptide … (SEQ ID NO: 135), synthetic, oxidized to form a disulfide bond (peptide)
peptide: CKHLGPQLC
modifications: disulfide 1-9 (inferred)

EC50 [2]: 5 µM | percent of RPM phage binding remaining [4]: < 4%
B4: RPM peptide … (SEQ ID NO: 134), synthetic, oxidized to form a disulfide bond (peptide)
peptide: CPIEDRPMC
modifications: disulfide 1-9 (inferred)
